The source of these data is article PMC8121154, “The effects of pH and NaCl concentration on the structure of β‐casein from buffalo milk” (Food Science & Nutrition, 2021).

The data set deals with the molecule itself. Kind of data set: dynamic light scattering; purified β‐CN in 10 mM sodium phosphate buffer at pH 5.5 and pH 5.0, room temperature; aggregates, micelles of 100 nm at pH 5.0.

B1: native β‐casein purified from buffalo milk (natural protein, buffalo (purified from buffalo milk), UniProt Q9TSI0 16-224, looked up)
chain: RELEELNVPGEIVESLSSSEESITHINKKIEKFQSEEQQQMEDELQDKIHPFAQTQSLVYPFPGPIPKSLPQNIPPLTQTPVVVPPFLQPEIMGVSKVKEAMAPKHKEMPFPKYPVEPFTESQSLTLTDVENLHLPLPLLQSWMHQPPQPLPPTVMFPPQSVLSLSQSKVLPVPQKAVPYPQRDMPIQAFLLYQEPVLGPVRGPFPIIV
notes: β‐casein of buffalo milk (water buffalo), native protein purified from milk; single band of approximately 25 kDa on SDS-PAGE; Native milk protein; also called β‐CN; buffalo β‐CN
With B1, the binding result is given as “binds”.
